Source: the nanobody polyreactivity screen of Harvey et al. (2022)

test: yeast display, Sf9 membrane polyspecificity reagent, FACS + sequencing; frameworks hold sequencing errors
In short: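 Synthetic nanobody libraries on Saccharomyces cerevisiae BJ5465 were galactose-induced for 36–48 hours, stained 1 hour at 4 °C with 10% biotinylated, detergent-solubilized Sf9 membrane reagent and enriched on streptavidin microbeads. FACS then separated cells into low and high (top ~1%) gates by anti-HA (expression) and streptavidin (reagent binding) fluorescence. Genes were colony-PCR amplified, MiSeq 2 × 250 sequenced and CDR-length filtered. A clone's polyreactivity label is that of its gate of origin.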

Row | Sequence | polyreactivity (PSR sort gate)
1 | QVQLVESGGGLVQAGGSRRLSCAASGRTFDSYTMGWYRQAPGKERELVADITFTGGSTYYADSVKGRFTISRDNAKNTVYLQMNSLKPDDTAVYYCNADREYKWYFRYDYWGQGTQVTVSS | low polyreactivity
2 | QVQLVESGGGLVQAGGSRRLSCAASGSIFATYAIGWYRQAPGKERELVAAISWSGGRTYYADSVKGRFTISRDNAKNTVYLEMNSLKPEDTAVYYCNAVTLLGTRGYGYWGQGTQVTVSS | high polyreactivity
3 | QVQLVESGGGLVQAGGSRRLSCAASGSTFSDYAMGWYRQAPGKERELVAAISSSGGRTYYADSVKGRFTISRDNAKNTVYLQMNSLNPEDTAVYYCNARGYARGVSTGYDFWGQGTQVTVSS | high polyreactivity
4 | QVQLVESGGGLVQAGGSRRLSCAASGSTFYGYAMGWYRHAPGKEREFVAAITTSGGSTYYADSVKGRFTISRDNAKNTVYLQMNSLKPEDTAVYYCAADGFYYDDGYWGQGTQVTVSS | low polyreactivity
5 | QVQLVESGGGLVQAGGSRRLSCAASGYSLRIYAMGWYRQAPGTEMELVAAISRSGGRTFYADSVKGRFTISRDNAKNTVFLQMNSLKQEDTAVYYCAADPRCYDTGRMDYWGQGTQVTVSS | high polyreactivity
6 | QVQLVESGGGLVQAGGSRRLSSAASGIILDHNAMGWYRQAPGKERELVAAISSGTRTNYADSVKGRFTISRDNAKNTVYLQMNSLKPEDTAVYYCAATIYRRYPSKSSITSYWGQGTQVTVSS | high polyreactivity
7 | QVQLVESGGGLVQAGGSVRLSCAASGRIFGWYAMGCYRPAPGKERELVAAIPWSGDSTYYADSVKGRFTISRDNAKNTVYLQMNSLKPEDTAVYYCNKVRGYPRVAGYYSWGQGTQVTVSS | low polyreactivity
8 | QVQLVESGGGLVQAGGSVRLSCAASGSTFLYNAMGWYRQAPGKEREVVAGIRRSGGSTYYADSVKGRFTISRANAKNTVYLQMNSLKPEDTAVYYCAVVPAMYRYRVVTYAYDYWGQGTQVNVSS | low polyreactivity
9 | QVQLVESGGGLVQAGGSVRLSCGASGRSFQRYALGWYRQAPGTERELVAAIRWSGGATYGDSVKGRFTISRDNAKNTVYLQMNSLQPEDTAVYYCAAVDRRDPYYPKYNYWGQGTQVTVSS | high polyreactivity
10 | QVQLVESGGGLVQAGGSVRLSCGASGSIFLGNSMGWYRQAPGTLRELVAAISSITGSTYYADSVKGRFSISRDIAKNTVYLQMNRLKQEETGVYYCARVPDTEGEYWGQGTQVTVSS | high polyreactivity
11 | QVQLVESGGGLVQAGGTLRISCAASGRIYAGYVMGWYRQAPRKERELVAAISGSGAYTYYADSVKGRFTISRDYAKNTVYLQMNRLKPEDSAVYYCAADKPGIFSRFDYWGQGTQVSVSS | low polyreactivity
12 | QVQLVESGGGLVQAGGTLRISCAASGSTFLFYAMGWYRQAPGKERELVAAISSSGTSTYYADSVKGRFTISRDNAKNTVYLQMNSLKPEDTACYYCARRGRSLRWKYDYWGQGTQVTVSS | low polyreactivity
13 | QVQLVESGGGLVQAGGTLRLSCAASGFTFLDYAMGWYRQAPGKERELVATINWSDVSTYYADSVKGRFTISRDTAKNTVYLQINSLKPEDTAVYYSAVDVLTVGQSNDHWGQGTQVTVSS | high polyreactivity
14 | QVQLVESGGGLVQAGGTLRLSCAASGFTFRYYAMGWYRQAPGKERELVAAISRGGTTNYADSVKGRFTISRDNAKNTVYLQMNSLKPEDTAVYYCAARQYYSRVTYDYWGQGTQVTVSS | high polyreactivity
15 | QVQLVESGGGLVQAGGTLRLSCAASGIILSRYAMGWYIQAPGKERELVAAITRTTSTSYADSVKGRFTISRDNAKNTFYLQMNILKTEDTEVYYCAAVHYGGTAYYYWGQGTQVNVSS | high polyreactivity
16 | QVQLVESGGGLVQAGGTLRLSCAASGITFKRYAMGWYRLAPGKERELVATISRSGGSPYADSVKGRFTISRDNAMNTVYLQMNSLKPEDSAVYYCNAVSQSSEYDYWGEGTQVTVSS | high polyreactivity
